T1: CADM1, endogenous in H929 multiple myeloma cells (human, UniProt Q9BY67 45-442)
T1 construct: Native protein on H929 cells (flow cytometry, siRNA knockdown) and in H929 lysates (IP/MS); RPMI-8226 cells were used for sorting with HW-97; also called IGSF4A
T1 sequence: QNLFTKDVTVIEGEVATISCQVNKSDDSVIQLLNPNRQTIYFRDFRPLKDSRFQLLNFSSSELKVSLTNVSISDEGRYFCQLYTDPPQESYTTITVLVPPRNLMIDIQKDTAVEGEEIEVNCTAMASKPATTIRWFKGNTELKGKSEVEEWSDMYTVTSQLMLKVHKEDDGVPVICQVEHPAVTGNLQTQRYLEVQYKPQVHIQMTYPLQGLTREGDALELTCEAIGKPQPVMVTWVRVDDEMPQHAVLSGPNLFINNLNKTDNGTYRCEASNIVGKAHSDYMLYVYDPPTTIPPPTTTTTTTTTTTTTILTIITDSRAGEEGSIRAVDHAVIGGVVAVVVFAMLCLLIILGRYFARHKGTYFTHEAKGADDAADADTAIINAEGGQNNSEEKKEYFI

T2: PTPRG-Fc (ECD of human PTPRG, aa 20-736, fused to human Fc gamma 1) (human, UniProt P23470 20-736)
T2 construct: Made in-house in Expi293 cells; Used in ELISA and SPR; also called recombinant PTPRG-Fc; PTRPG; not shown: human IgG1 Fc (Fc gamma 1) after the hinge
T2 sequence: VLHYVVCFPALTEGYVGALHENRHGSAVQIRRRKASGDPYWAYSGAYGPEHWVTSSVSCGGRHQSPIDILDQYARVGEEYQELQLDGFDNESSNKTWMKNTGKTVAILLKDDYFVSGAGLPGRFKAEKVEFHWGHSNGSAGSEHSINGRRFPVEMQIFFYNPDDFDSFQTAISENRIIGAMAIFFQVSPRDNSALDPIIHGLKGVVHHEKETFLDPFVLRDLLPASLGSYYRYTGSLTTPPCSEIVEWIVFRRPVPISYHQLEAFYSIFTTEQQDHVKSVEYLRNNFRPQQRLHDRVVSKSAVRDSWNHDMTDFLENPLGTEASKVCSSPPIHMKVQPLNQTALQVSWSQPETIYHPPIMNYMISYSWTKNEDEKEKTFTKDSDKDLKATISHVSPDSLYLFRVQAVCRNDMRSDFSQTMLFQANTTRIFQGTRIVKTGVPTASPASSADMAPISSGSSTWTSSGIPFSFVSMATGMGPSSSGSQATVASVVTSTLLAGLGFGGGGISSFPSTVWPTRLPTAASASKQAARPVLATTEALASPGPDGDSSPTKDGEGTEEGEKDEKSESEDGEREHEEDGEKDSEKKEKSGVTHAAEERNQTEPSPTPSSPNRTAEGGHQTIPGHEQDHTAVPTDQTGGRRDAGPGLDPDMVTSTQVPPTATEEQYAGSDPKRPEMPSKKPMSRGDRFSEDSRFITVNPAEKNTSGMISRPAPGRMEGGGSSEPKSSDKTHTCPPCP


Experiments:
[1] = target: T1, CADM1, endogenous in H929 multiple …; assay: flow cytometry, H929 + NT Green siRNA; None 416
[2] = target: T2, PTPRG-Fc (ECD of human PTPRG, aa …); assay: ELISA on coated PTPRG-Fc
Description: Recombinant purified ECDs (50-150 ng) of each putative target protein were coated, incubated with 150 ng of the indicated primary antibody, and binding was detected using a peroxidase-conjugated anti-human Fab secondary antibody. Heatmap represents averages of technical triplicates. (8B) Target validation via siRNA knockdown. H929 cells were transfected with siRNA pools targeting the putative antibody targets ICAM1, CADM1, and PTPRG. Cells were then subjected to cognate IgG binding analysis via flow cytometry. (NT, non-targeting siRNA).
ELISA ELISA was conducted as described previously. Briefly, 50-150 ng of antigen was coated overnight in half-area 96-well plates at 4° C., blocked with 3% BSA at 37° C. for 1 h, and 150 ng of chimeric rabbit/human IgG1 was added, incubating for 2 h at 37° C. […] After incubating at 37° C. for 15 min-1 h (depending on intensity of controls), data were acquired using a SpectraMax M5 plate reader (Molecular Devices).

[3] = target: T3, ICAM1, endogenous in H929 multiple myeloma cells (human, UniProt P05362 28-532); assay: flow cytometry, H929 + vehicle; None 2.74
T3 construct: Native protein on H929 cells (flow cytometry, siRNA knockdown) and in H929 lysates (IP/MS); also called CD54

[4] = target: T1, CADM1, endogenous in H929 multiple …; assay: flow cytometry, IgG1 on H929 cells
Description: Staining protocol. Cells were harvested (5×10⁴ cells per sample), washed once with phosphate-buffered saline (PBS) at RT, and a second time with ice-cold FACS buffer (PBS, 0.5% BSA, 2 mM EDTA, 0.1% NaN₃). Cells were stained in 50 μL of primary antibody for 30 min on ice, washed twice with 100 μL FACS buffer, stained with 50 μL of diluted secondary antibody, washed two more times in FACS, and then resuspended in 50 μL FACS buffer. Samples were acquired on an Accuri C6 Plus or a BD FACSCanto II flow cytometer (both from BD Biosciences). Data were analyzed using FlowJo version 10 software. Primary antibodies: Fab (10 μg/mL), IgG1 (0.1 to 50 μg/mL), or 25 μL polyclonal Fabs from periplasmic extracts. Polyclonal Fabs were produced by diluting bacterial stocks by a factor of 100 in autoinduction media and incubating overnight to induce expression as previously described. […] Viability stains: DAPI (Cell Signaling Technology) or SYTOX AADvanced Dead Cell Stain (Thermo Fisher Scientific). Labeling: The panel of chimeric rabbit/human IgG1s was labeled using the Alexa Fluor 647 Labeling Kit (Thermo Fisher Scientific, #A20173) to facilitate single-step staining. Competition: Unlabeled IgG1s were added at saturating concentrations of 60 μg/mL to block the target receptors, incubating on ice for 30 min, followed by the addition of an equal volume of the Alexa Fluor 647 labeled antibody at 2 μg/mL, and the mixture was incubated on ice for another 30 min.

[5] = target: T1, CADM1, endogenous in H929 multiple …; assay: flow cytometry, H929 + ICAM1 siRNA; None 1.06
[6] = target: T1, CADM1, endogenous in H929 multiple …; assay: flow cytometry, H929 + ICAM1 siRNA; None 455

T3 sequence (P05362 28-532 limits assumed): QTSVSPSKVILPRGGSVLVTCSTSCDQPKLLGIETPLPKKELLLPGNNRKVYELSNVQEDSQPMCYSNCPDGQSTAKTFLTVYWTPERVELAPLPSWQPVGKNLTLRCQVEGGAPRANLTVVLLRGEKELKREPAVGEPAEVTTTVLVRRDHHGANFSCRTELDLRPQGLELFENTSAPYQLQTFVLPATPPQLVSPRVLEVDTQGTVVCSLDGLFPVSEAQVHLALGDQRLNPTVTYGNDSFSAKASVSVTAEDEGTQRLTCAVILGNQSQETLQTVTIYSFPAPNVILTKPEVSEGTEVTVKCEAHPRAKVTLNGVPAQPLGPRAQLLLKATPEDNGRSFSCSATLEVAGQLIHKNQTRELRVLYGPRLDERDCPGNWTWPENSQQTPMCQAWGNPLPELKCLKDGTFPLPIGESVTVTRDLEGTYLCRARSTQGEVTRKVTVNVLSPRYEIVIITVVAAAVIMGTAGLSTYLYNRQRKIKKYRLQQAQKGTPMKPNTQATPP

| Binder | mAb binding (MFI) [1] | antibody-bound positive cells (%) [4] [%] | binding result [2] | other results |
| --- | --- | --- | --- | --- |
| HW-56 chimeric rabbit-human IgG1 LA/LA/PG (antibody, V domains shown, Fc-silenced (L234A/L235A/P329G) IgG1, kappa; Alexa Fluor 647-labeled in single-step flow cytometry; Cluster C-45) VH: QSVKESEGGLFKPTDTLTLTCTASGFTVSTNAVTWVRQAPGNGLEYIGTIGRSGSAYFASWAKRRSTLTRDINLNTVTLKMTSLTAADTATYFCVRGSPGYRTAISIWGPGTLVTISS VL: AVMTQTPSSTSAAVEGTVTINCQASQSISNRLSWFQQKPGQPPKLLIYQASTLASGVPSRFKGSGSGTEFTLTISGVQREDAATYYCLGSYSSSDASFGGGTKLEIKR |  |  | no binding (tested: 150 ng IgG1 per well) |  |
| HW-28 chimeric rabbit-human IgG1 LA/LA/PG (antibody, V domains shown, Fc-silenced (L234A/L235A/P329G) IgG1, lambda; Alexa Fluor 647-labeled in single-step flow cytometry; Cluster C-45) VH: QKQLVESGGRLVTPGTPLTLTCTASGFSLSSNAMSWVRQAPGEGLQWIGTISSGGSTYYASWAKGRFTISKTSTTVTLKMTSLTTEDTATYFCARGADLHRLWGPGTLVTVSS VL: SFVLTQPASVQVNLGQTVSLTCTGKPLSRSFASWYQQKPGQAPVLVIYRDTSRPSGVPDRFSGSSSGNTATLTISGAQAGDEADYYCATSDGSGSSYQYVFGGGTQLTVTG |  |  | no binding (tested: 150 ng IgG1 per well) |  |
| HW-113 chimeric rabbit-human IgG1 LA/LA/PG (antibody, V domains shown, Fc-silenced (L234A/L235A/P329G) IgG1, lambda; Alexa Fluor 647-labeled in single-step flow cytometry) VH: QKQLVESGGGLVQPGGSLTLTCTVSGFSLNKYYMGWFRQAPGKGLEWIGVISRSGDTYYSSWAKGRFTISKASTTVDLRITSPTTEDTATYFCARDASSPGFHGDRLDLWGQGTLVTVSS VL: SFVLTQPASVQVNLGQTVSLTCTADTLSRSYASWYQQKPGQAPVLLIYRDTSRPSGVPDRFSGSSSGNTATLTISGAQAGDEADYYCATSDGIGSNYLWVFGGGTQLTVTG |  |  |  | Cells stained (%) [3]: 99.8% |
| HW-81 chimeric rabbit-human IgG1 LA/LA/PG (antibody, V domains shown, Fc-silenced (L234A/L235A/P329G) IgG1, lambda; Alexa Fluor 647-labeled in single-step flow cytometry; Cluster C-45) VH: QKQLVESGGGLVTPGGTLTLTCTVSGFSLSSNGVSWVRQAPGKGLEYIGLIRSIGSTYYATWAKGRFTISKTSTTVDLKITSPTTEDTATYFCARGGYRNGFKLWGPGTLVTVSS VL: QPVLTQSPSVSAALGASAKLTCTLSSAHKTYYIEWYQQQHPGKAPRYLMQLQSDGSYTKGTGVPDRFSGSSSGADRYLIISSVQAEDEADYICGVIDSAVYVFGGGTQLTVTG |  |  | no binding (tested: 150 ng IgG1 per well) |  |

Continued, in another order:

| mAb binding (MFI) [1] | antibody-bound positive cells (%) [4] [%] | Binder | binding result [2] | other results |
| --- | --- | --- | --- | --- |
| 483 |  | TH9-0022 (antibody, human IgG1, kappa, L234A L235A, V domains shown, also called TH9-022; negative control) VH: QSLEESGGRLVTPGTPLTLTCTVSGFSLSSYAMNWVRQAPGKGLEWIGIINSYGSTYYASWAKGRFTISKTSTTVDLKITSPTTEDTATYFCARVTYDSYGYGYAPYGMDLWGPGTLVTVSS VL: LVMTQTPSSTSNAVGGTVTIKCQASQSIGNVLAWYQQKPGQPPKLLIYAASTLASGVPSRVGGSRSGTEYTLTISGVQREDAATYYCLGSDSDSDIAFGGGTELEILR | no binding (tested: 150 ng IgG1 per well) | Cells stained (%) [3]: 2.62% |
|  | 2.7 | TH9-0022 (antibody, human IgG1, kappa, L234A L235A, V domains shown, also called TH9-022; negative control IgG1) VH: QSLEESGGRLVTPGTPLTLTCTVSGFSLSSYAMNWVRQAPGKGLEWIGIINSYGSTYYASWAKGRFTISKTSTTVDLKITSPTTEDTATYFCARVTYDSYGYGYAPYGMDLWGPGTLVTVSS VL: LVMTQTPSSTSNAVGGTVTIKCQASQSIGNVLAWYQQKPGQPPKLLIYAASTLASGVPSRVGGSRSGTEYTLTISGVQREDAATYYCLGSDSDSDIAFGGGTELEILR |  |  |
| 9600 | 98.6 | HW-97 chimeric rabbit-human IgG1 LA/LA/PG (antibody, V domains shown, Fc-silenced (L234A/L235A/P329G) IgG1, lambda; Alexa Fluor 647-labeled in single-step flow cytometry; Prototype of cluster C-97) VH: QKQLVESGGRLVTPGTPLTLTCTVTGIDLSSHGMSWVRQAPGKGLEWIGVIYPSGSTWYASWARGRFTISKTSTTVDLKMTSLTTEDTATHFCARGDVGGADNNIWGPGTLVTVSS VL: SFVLTQPASVQVDLGQTVSLTCTAETLSRSYASWYQQKPGQAPVLLIYRDTSRPSGVPDRFSGSSSGNTATLTISGAQAGDEADYYCATSDGSGSSYQYVFGGGTQLTVTG |  | Cells stained (%) [5]: 97.1%; mAb binding (MFI) [6]: 9430 |
| 6440 | 95.3 | HW-101 chimeric rabbit-human IgG1 LA/LA/PG (antibody, V domains shown, Fc-silenced (L234A/L235A/P329G) IgG1, lambda; Alexa Fluor 647-labeled in single-step flow cytometry; Cluster C-97) VH: QEQLVESGGRLVTPGTPLTLTCKASGFSLGKYDMSWVRQAPGKGLEWIGTIYAGSGSTWYASWAKGRFTISKTSTTVDLKMTSLTTEDTATYFCARDFLGVNSIWGPGTLVTISS VL: SFVLTQPASVQVNLGQTVSLTCTADTLSRSYASWYQQKPDQAPVLLIHRDTSRPSGVPDRFSGSNSGNTATLTISGAQAGDEADYYCATSDGSGSNFHFVFGGGTQLTVTG |  | Cells stained (%) [5]: 93.8%; mAb binding (MFI) [6]: 6390 |
